# Results reported in PMC6150735, “Molecular Docking-Based Design and Development of a Highly Selective Probe Substrate for UDP-glucuronosyltransferase 1A10” (Molecular Pharmaceutics, 2018).
# T1: UGT1A10 mutant 1A10-H210M (Homo sapiens, UniProt Q9HAW8, H210M)
# T1 construct: His-tag; made in house; host or cells: baculovirus-infected SF9 insect cells
# T1 sequence (Q9HAW8 26-530 H210M): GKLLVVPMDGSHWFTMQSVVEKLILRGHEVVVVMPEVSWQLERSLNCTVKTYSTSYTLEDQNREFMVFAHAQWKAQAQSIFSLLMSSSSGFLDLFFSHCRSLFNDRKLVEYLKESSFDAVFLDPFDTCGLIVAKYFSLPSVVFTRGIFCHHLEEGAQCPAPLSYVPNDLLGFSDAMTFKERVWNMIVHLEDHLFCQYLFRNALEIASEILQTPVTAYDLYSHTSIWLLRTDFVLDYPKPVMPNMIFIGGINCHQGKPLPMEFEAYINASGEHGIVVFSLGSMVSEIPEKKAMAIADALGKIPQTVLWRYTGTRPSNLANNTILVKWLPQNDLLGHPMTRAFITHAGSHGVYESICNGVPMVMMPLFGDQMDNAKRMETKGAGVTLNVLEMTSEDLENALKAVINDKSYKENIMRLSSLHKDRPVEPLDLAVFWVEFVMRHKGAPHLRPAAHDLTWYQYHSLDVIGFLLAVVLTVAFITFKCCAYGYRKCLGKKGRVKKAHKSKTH
# B1: UGT1A10 mutant 1A10-H210M (Homo sapiens; H210M) (protein)
# chain: T1 sequence (Q9HAW8 26-530 H210M)
# notes: His-tag; made in house; host or cells: baculovirus-infected SF9 insect cells
# Legend:
# [1] = system: UGT1A1; test: Recombinant human UGT screen: glucuronidation by UGT1A1; type: biochemical; details: 10 μM aglycone, recombinant UGTs
# Method: Recombinant human UGTs 1A1, 1A3, 1A6, 1A7, 1A8, 1A9, 1A10, 2A1, 2A2, 2A3, 2B4, 2B10, 2B7, and 2B17 were produced, as His-tagged proteins, in baculovirus-infected insect cells as previously described.[37]−[39] The relative expression level of each of these recombinant UGTs was evaluated by immunodetection, using monoclonal antibody against the His-tag, as described elsewhere.[40] A numeric value of 1.0 was given to the expression level of UGT1A8 and the relative expression level of each of the other UGTs was related to this value. Normalized activities were obtained by dividing the glucuronidation rate values by the relative expression level of the tested UGT. […] The expression levels of the UGTs in the commercial samples could not be determined, so their protein concentration was used to calculate the reaction rate.
# The incubation mixtures for glucuronidation assays contained 100 mM Tris-HCl buffer pH 7.4, 2.5 mM MgCl2, 0.5 mM UDPGA, recombinant UGT, or microsomes as the enzyme source and 0–15 μM of the test aglycone substrate. […] In subsequent experiments, the control samples lacked the enzyme source since it gave the highest fluorescence background. […] Fluorescence spectra (excitation 200–420 nm; emission 400–600 nm) or fluorescence decrease at 390 nm excitation and 460 nm emission, were measured in these preliminary experiments, using a Shimadzu RF-5000 spectrophotofluorometer. […]
# [2] = Absorbance spectra of coumarin derivatives; type: physicochemical; details: 10 μM, 100 mM Tris–HCl pH 7.4, 10% dimethyl sulfoxide
# Method: The absorbance spectra of 10 μM coumarin derivatives at 100 mM Tris–HCl pH 7.4 containing 10% dimethyl sulfoxide were measured using a Hitachi U-2000 Spectrophotometer (Tokyo, Japan). Excitation and emission fluorescence spectra of 0.1 μM coumarin derivatives in 100 mM Tris-HCl pH 7.4 were measured using a Shimadzu RF-5000 spectrophotofluorometer (Tokyo, Japan). The excitation spectra was from 200 to 420 at 460 nm emission and the emission spectra was from 400 to 600 at 390 nm excitation (data in Supplementary Table S1 and Figures S1 and S2). The effect of pH on fluorescence intensity was determined at 405 nm excitation and 460 nm emission, in the presence of 1.5% trichloroacetic acid, 100 mM phosphate buffers at pH 5, 6, 7, 8, and 9, or 1.6 M glycine–NaOH pH 10.4.
# [3] = Excitation and emission fluorescence spectra of coumarin derivatives; type: physicochemical; set-up: dose or concentration left out as unconfirmed
# Method: The absorbance spectra of 10 μM coumarin derivatives at 100 mM Tris–HCl pH 7.4 containing 10% dimethyl sulfoxide were measured using a Hitachi U-2000 Spectrophotometer (Tokyo, Japan). […] The excitation spectra was from 200 to 420 at 460 nm emission and the emission spectra was from 400 to 600 at 390 nm excitation (data in Supplementary Table S1 and Figures S1 and S2). The effect of pH on fluorescence intensity was determined at 405 nm excitation and 460 nm emission, in the presence of 1.5% trichloroacetic acid, 100 mM phosphate buffers at pH 5, 6, 7, 8, and 9, or 1.6 M glycine–NaOH pH 10.4.
# [4] = molecular target: T1, UGT1A10 mutant 1A10-H210M; test: Glucuronidation kinetics by UGT1A10 mutant 1A10-H210M (fluorescence decrease, 96-well plate); type: biochemical; details: mutant versus wild-type UGT1A10
# Method: (§1) The UGT1A10 mutant 1A10-H210 M was prepared according to the QuikChange methodology, using the cloned UGT1A10 in pFastBac[42] as a template and the following two oligonucleotides:
# (§2) The entire coding sequence of UGT1A10 in the mutant clone was sequenced, and subsequently, recombinant baculovirus was prepared and used to express the mutant enzyme in baculovirus-infected SF9 insect cells.
# The incubation mixtures for glucuronidation assays contained 100 mM Tris-HCl buffer pH 7.4, 2.5 mM MgCl2, 0.5 mM UDPGA, recombinant UGT, or microsomes as the enzyme source and 0–15 μM of the test aglycone substrate. When the incubation mixtures contained microsomes, alamethicin was used at a final concentration of 12.5 μg/mL, but it was not included in the recombinant enzyme assays.[43] In the first experiments three negative control samples were tested, namely (i) without the substrate 7-hydroxycoumarin derivative, (ii) without the cofactor UDPGA, or (iii) without the enzyme source. In subsequent experiments, the control samples lacked the enzyme source since it gave the highest fluorescence background. […] Fluorescence spectra (excitation 200–420 nm; emission 400–600 nm) or fluorescence decrease at 390 nm excitation and 460 nm emission, were measured in these preliminary experiments, using a Shimadzu RF-5000 spectrophotofluorometer.
# Most of the glucuronidation assays were carried out in 96 multiwell plate format, and incubations were carried out in 100 μL and at 37 °C, in the presence of Tris–HCl buffer pH 7.4, UDPGA, and the tested 7-hydroxycoumarin derivative, at the indicated concentrations. Fluorescence decline in the multiwell plate experiments was monitored every other minute, for 40 min, using an excitation filter at 405 nm and detection at 460 nm, in a Victor2 1420 Multilabel counter (PerkinElmer, Life Sciences, Turku, Finland). The fluorescence values were transformed into molarity using the aglycone substrates for making the respective standard curves. […] Enzyme catalyzed glucuronidation rate was calculated by subtracting the blank value from the full reaction value. […]
# [5] = system: human UGTs; test: Recombinant human UGT screen: glucuronidation rates across human UGTs; type: biochemical; details: 10 μM aglycone, control substrates
# Method: Recombinant human UGTs 1A1, 1A3, 1A6, 1A7, 1A8, 1A9, 1A10, 2A1, 2A2, 2A3, 2B4, 2B10, 2B7, and 2B17 were produced, as His-tagged proteins, in baculovirus-infected insect cells as previously described.[37]−[39] The relative expression level of each of these recombinant UGTs was evaluated by immunodetection, using monoclonal antibody against the His-tag, as described elsewhere.[40] A numeric value of 1.0 was given to the expression level of UGT1A8 and the relative expression level of each of the other UGTs was related to this value. Normalized activities were obtained by dividing the glucuronidation rate values by the relative expression level of the tested UGT. In addition, UGTs 1A4, 2B10, and 2B15 were purchased from Corning Life Sciences (New York) and are marked, in Figure 5, with a “C” to indicate that they are commercial enzymes. The expression levels of the UGTs in the commercial samples could not be determined, so their protein concentration was used to calculate the reaction rate.
# (§3) The incubation mixtures for glucuronidation assays contained 100 mM Tris-HCl buffer pH 7.4, 2.5 mM MgCl2, 0.5 mM UDPGA, recombinant UGT, or microsomes as the enzyme source and 0–15 μM of the test aglycone substrate. When the incubation mixtures contained microsomes, alamethicin was used at a final concentration of 12.5 μg/mL, but it was not included in the recombinant enzyme assays.[43] In the first experiments three negative control samples were tested, namely (i) without the substrate 7-hydroxycoumarin derivative, (ii) without the cofactor UDPGA, or (iii) without the enzyme source. In subsequent experiments, the control samples lacked the enzyme source since it gave the highest fluorescence background. Preliminary experiments were done under different conditions than most of the later assays, namely in 2.5 mL of 100 mM phosphate buffer pH 7.4, containing 500 μg pig liver microsomes, 1.0 μM compound 6 and 0.5 mM UDPGA, at room temperature. Fluorescence spectra (excitation 200–420 nm; emission 400–600 nm) or fluorescence decrease at 390 nm excitation and 460 nm emission, were measured in these preliminary experiments, using a Shimadzu RF-5000 spectrophotofluorometer.
# (§4) Most of the glucuronidation assays were carried out in 96 multiwell plate format, and incubations were carried out in 100 μL and at 37 °C, in the presence of Tris–HCl buffer pH 7.4, UDPGA, and the tested 7-hydroxycoumarin derivative, at the indicated concentrations. Fluorescence decline in the multiwell plate experiments was monitored every other minute, for 40 min, using an excitation filter at 405 nm and detection at 460 nm, in a Victor2 1420 Multilabel counter (PerkinElmer, Life Sciences, Turku, Finland). The fluorescence values were transformed into molarity using the aglycone substrates for making the respective standard curves. Slopes of the substrate concentration decrease per minute were calculated using linear regression analysis, in which the linear part of the kinetic assay indicated the glucuronidation rate. Enzyme catalyzed glucuronidation rate was calculated by subtracting the blank value from the full reaction value. The intra-assay variability of the kinetic assays was 6% when compound 6 was used as the aglycone substrate. Kinetic analyses were also performed in the same 96 multiwell plates format, with excitation filter at 405 nm and detection at 460 nm, using 6–8 different substrate concentrations per substrate and two different protein concentrations for both the wild-type and mutant UGT1A10. The higher concentrations, 13.5 mg/L for UGT1A10 and 12.0 mg/L for the UGT1A10 mutant, were used when the substrates were HFC, compounds 4 and 6, whereas the lower protein concentrations, 6.75 and 6.0 mg/L for UGT1A10 and the mutant, respectively, were used when the substrates were compounds 1, 2, 3, and 5.
# [6] = system: human intestinal microsomes (HIM); test: Glucuronidation by human intestinal microsomes (HIM); type: in vitro ADME; details: 10 μM aglycone
# Method: A commercial HLM pool (cat no:452210, BD Gentest, Bedford, MA) and human intestine microsomes (HIM) pool (lot. no 1110189, XenoTech, Kansas City, KS) were purchased. Pig liver samples were prepared from untreated female pigs that were used for practicing surgical procedures at the University of Kuopio (currently: University of Eastern Finland, Kuopio campus). Other animal liver microsomes were prepared as described previously.[41] The Ethics Committee for Animal Experiments, University of Kuopio, approved these experiments.
# as §3, §4
# [7] = substrate: CN(C)c1ccc(-c2cc3ccc(O)cc3oc2=O)cc1; test: Glucuronidation kinetics by UGT1A10 mutant 1A10-H210M (fluorescence decrease, 96-well plate); type: biochemical, human; details: other: UGT1A10mutant (H210M), 7-hydroxyl glucuronidation, one experiment; pH 7.4; 37.0 °C
# Method: as §1, §2, §3, §4
# [8] = substrate: COc1ccc(-c2cc3ccc(O)cc3oc2=O)cc1; test: as above; type: biochemical, human; details: other: UGT1A10mutant (H210M), 7-hydroxyl glucuronidation, one experiment; pH 7.4; 37.0 °C
# Method: as §1, §2, §3, §4
# [9] = substrate: Cc1ccc(-c2cc3ccc(O)cc3oc2=O)cc1; test: as above; type: biochemical, human; details: other: UGT1A10mutant (H210M), 7-hydroxyl glucuronidation, one experiment; pH 7.4; 37.0 °C
# Method: as §1, §2, §3, §4
# [10] = substrate: O=c1cc(C(F)(F)F)c2ccc(O)cc2o1; test: as above; type: biochemical, human; details: other: UGT1A10mutant (H210M), 7-hydroxyl glucuronidation, one experiment; pH 7.4; 37.0 °C
# Method: as §1, §2, §3, §4
# [11] = substrate: O=c1oc2cc(O)ccc2cc1-c1ccc(F)cc1; test: as above; type: biochemical, human; details: other: UGT1A10mutant (H210M), 7-hydroxyl glucuronidation, one experiment; pH 7.4; 37.0 °C
# Method: as §1, §2, §3, §4
# [12] = substrate: O=c1oc2cc(O)ccc2cc1-c1ccc(O)cc1; test: as above; type: biochemical, human; details: other: UGT1A10mutant (H210M), 7-hydroxyl glucuronidation, one experiment; pH 7.4; 37.0 °C
# Method: as §1, §2, §3, §4
# [13] = substrate: O=c1oc2cc(O)ccc2cc1-n1cncn1; test: as above; type: biochemical, human; details: other: UGT1A10mutant (H210M), 7-hydroxyl glucuronidation, one experiment; pH 7.4; 37.0 °C
# Method: as §1, §2, §3, §4
molecule,measurement,setting,value
"COc1ccc(-c2cc3ccc(O)cc3oc2=O)cc1 [Compound 3, 7-hydroxy-3-(4-methoxyphenyl)coumarin]",Glucuronidation rate by UGT1A1 relative to the corresponding UGT1A10 rate,[1],~20%
same,Amax,[2],350 nm
same,ε abs,[2],17300 M⁻¹ cm⁻¹
same,Fluorescence EMmax,[3],472 nm
same,Fluorescence EXmax,[3],368 nm
"O=c1cc(C(F)(F)F)c2ccc(O)cc2o1 [HFC, 4-(trifluoromethyl)-7-hydroxycoumarin, reference compound]",Change of Km by the H210M mutation (in words),[4],increase
same,UGT(s) that primarily glucuronidate the substrate,[5],UGT1A6 and UGT1A10
same,"Glucuronidation rate, HLM compared with HIM (in words)",[6],much higher rates by HLM than by HIM
B1,Km,[7],4.7 (1.5–7.9) μM
same,Vmax,[7],0.0065 µmol/min/mg
same,Vmax/Km,[7],1400 µL/min/mg
same,Km,[8],3.8 (0.97–6.7) μM
same,Vmax,[8],0.0095 µmol/min/mg
same,Vmax/Km,[8],2500 µL/min/mg
same,Km,[9],4.6 (1.5–7.8) μM
same,Vmax,[9],0.0059 µmol/min/mg
same,Vmax/Km,[9],1300 µL/min/mg
same,Km,[10],32.9 (0–102) μM
same,Vmax,[10],0.0117 µmol/min/mg
same,Vmax/Km,[10],360 µL/min/mg
same,Km,[11],3.5 (0–9.3) μM
same,Vmax,[11],0.0087 µmol/min/mg
same,Vmax/Km,[11],2500 µL/min/mg
same,Km,[12],7.8 (5.5–10.2) μM
same,Vmax,[12],0.0063 µmol/min/mg
same,Vmax/Km,[12],810 µL/min/mg
same,Km,[13],26.8 (0–80) μM
same,Vmax,[13],0.0063 µmol/min/mg
same,Vmax/Km,[13],240 µL/min/mg
